According to patent US20080317723A1, “LYMPHATIC ENDOTHELIAL CELLS MATERIALS AND METHODS” (VEGENICS LIMITED, priority 2001, published 2008):

T1: VEGFR-3/EpoR (Homo sapiens, UniProt P35916)
T1 construct: a chimeric receptor containing the extracellular domain of human VEGFR-1, VEGFR-2 or VEGFR-3 fused with the transmembrane and cytoplasmic domains; expressed in transfected cells; host or cells: murine Ba/F3 pre-B cells, stably transfected
T1 sequence (P35916 25-775 limits assumed): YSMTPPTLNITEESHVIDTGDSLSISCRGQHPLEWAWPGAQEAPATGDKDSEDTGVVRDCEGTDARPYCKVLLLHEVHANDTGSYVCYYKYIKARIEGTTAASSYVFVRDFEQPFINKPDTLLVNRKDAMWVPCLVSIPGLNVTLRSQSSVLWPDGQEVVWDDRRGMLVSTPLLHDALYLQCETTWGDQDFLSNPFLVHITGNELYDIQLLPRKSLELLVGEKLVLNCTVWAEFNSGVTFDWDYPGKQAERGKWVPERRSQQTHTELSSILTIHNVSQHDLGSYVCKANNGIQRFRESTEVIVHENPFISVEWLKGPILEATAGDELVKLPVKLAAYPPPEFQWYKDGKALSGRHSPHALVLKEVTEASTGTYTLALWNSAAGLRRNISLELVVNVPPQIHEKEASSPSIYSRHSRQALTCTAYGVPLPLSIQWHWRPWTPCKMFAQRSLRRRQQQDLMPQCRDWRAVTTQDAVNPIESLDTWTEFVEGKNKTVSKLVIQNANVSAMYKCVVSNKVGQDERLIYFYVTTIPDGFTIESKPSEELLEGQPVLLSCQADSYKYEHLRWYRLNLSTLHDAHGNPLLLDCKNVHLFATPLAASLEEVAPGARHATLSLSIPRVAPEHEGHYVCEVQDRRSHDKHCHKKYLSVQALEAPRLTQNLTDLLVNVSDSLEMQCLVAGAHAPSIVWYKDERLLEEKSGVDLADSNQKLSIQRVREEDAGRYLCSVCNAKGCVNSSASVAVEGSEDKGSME

B1: VEGF-C156S: VEGFR-3 specific mutant form of VEGF-C, cysteine 156 changed into serine; recombinant human (Thr103 to Ile225) (protein, UniProt P49767 103-225, looked up, variant C156S)
chain: TEETIKFAAAHYNTEILKSIDNEWRKTQCMPREVCIDVGKEFGVATNTFFKPPSVSVYRCGGCCNSEGLQCMNTSTSYLSKTLFEITVPLSQGPKPVTISFANHTSCRCMSKLDVYRQVHSII

What was measured:
CREB = CREB Ser133 phosphorylation in HMVE cells, Western blot; assay type: cell-based, human; conditions: HMVECs
Experimental: Western blot analysis. Endothelial cells were cultured on 35 mm dishes to near confluence, starved for 24 h in serum free medium and stimulated as indicated. Wortmannin ([…]), LY294002 ([…]), PD98059 (10-25 μM) or GF109203X (2.5-5 μM) were added 1-3 h before stimulation, where indicated. DMSO, into which the inhibitors were dissolved, was used as a control. After the stimulation, the cells were lysed in lysis buffer (50 mM HEPES, pH 7.5, 150 mM NaCl, 10 mM EDTA, 100 mM NaF, 1% TritonX-100 supplemented with 2 mM Na3VO4, 0.5 mM PMSF, 100 U/ml approtinin and 10 μg/ml leupeptin). Clarified lysates were separated by SDS-PAGE, transferred to nitrocellulose and immunoblotted using the phosphospecific antibodies for Akt-Ser473, Akt-Thr308, p42/44 MAPK-Thr202/Tyr204 or CREB-Ser133. The bound antibodies were detected using horseradish peroxidase conjugated secondary antibodies and enhanced chemiluminescence detection system. The blots were stripped and reprobed with antibodies against Akt, MAPK or CREB for quantification by reading the optical densities of the signals with Multi-Analyst 2.0.1 program (Bio-Rad).
The p42/p44 MAPK activation was detected by Western blotting using phospho-Thr202/Tyr204-MAPK specific antibodies and CREB phosphorylation using phospho-Ser133 specific antibodies. The growth factor concentrations used were: VEGF 10 ng/ml, VEGF-C 100 ng/ml and VEGF-C156S 500 ng/ml. […] Effects of inhibition of protein kinase C by GF109203X, MEK1 by PD98059 and PI-3 kinase by LY294002 on p42/p44 MAPK Thr202/Tyr204 phosphorylation, CREB Ser133 phosphorylation and Akt Ser473 phosphorylation in HMVE cells. The growth factor concentrations used were: VEGF 1 ng/ml, VEGF-C 10 ng/ml and VEGF-C156S 500 ng/ml

VEGFR-3/EpoR = molecular target: T1, VEGFR-3/EpoR; assay: Ba/F3 bioassay, viability (MTT) of VEGFR-3/EpoR cells; assay type: cell-based
Experimental: FIG. 1A-FIG. 1C. Analysis of the receptor-specificities of different VEGFs using the Ba/F3 bioassay. Measurement of the viability of Ba/F3 cells expressing the chimeric receptors VEGFR-1/EpoR (FIG. 1A), VEGFR-2/EpoR (FIG. 1B) or VEGFR-3/EpoR (FIG. 1C) in the presence of different VEGFs at indicated concentrations. Cell viability was determined using the MTT assay. Data represent the mean values from triplicate assays (mean±s.d.). FIG. 1D-FIG. 1G. Biosensor analysis of the interaction of VEGF-C (FIG. 1D, FIG. 1E) and VEGF-C156S (FIG. 1F, FIG. 1G) with VEGFR-3 (FIG. 1D, FIG. 1F) and VEGFR-2 (FIG. 1E, FIG. 1G). Chimeric receptor proteins were immobilized onto a carboxymethylated dextran surface. Growth factors were injected over the surface at a flow rate of 20 μl/min at the indicated concentrations. The sensorgrams shown have been subtracted with the corresponding signal obtained when the same sample was passed over a blank control channel.
Bioassay for VEGFR stimulation. […]
VEGF is an endothelial cell mitogen which has been also shown to protect endothelial cells from starvation and TNF-a induced apoptosis via activation of VEGFR-2 (Gerber et al, J. Biol. Chem., 273:30336-30343, 1998; Spyridopoulos et al., J. Mol. Cell. Cardiol., 29:1321-1330, 1997). […] The specificities of the growth factors used were determined using a cell survival bioassay. […]

Row | Molecule | CREB phosphorylation on growth factor stimulation (CREB) | concentration which gave maximal viability in VEGFR-3/EpoR cell survival assays (VEGFR-3/EpoR; Ba/F3 VEGFR-3/EpoR cells) [ng/mL] | survival of VEGFR-3/EpoR expressing cells (VEGFR-3/EpoR; Ba/F3 cells, FIG. 1C)
1 | VEGF | detected | – | –
2 | B1 | – | 500 | VEGFR-3/EpoR expressing cells survived
